A word on the EC50: it is the concentration needed to bring the measured effect to its halfway point. A high value points to lower potency in that assay.

For this test, the target named is GST-huFcγRIIA(R131) (human) [GST: P08515]. Put plainly: ELISA, plate-coated GST fusion (FIG. 8). Background: An ELISA detects its analyte on a solid surface through an enzyme-linked reagent.

B1: Antibody 5A6.2.1 (anti-human FcγRIIB monoclonal antibody) (antibody)
VH: EVKLEESGGGLVQPGGSMKLSCVASGFTFSDAWMDWVRQSPERGLEWVAEIRSKPNNHATYYAESVKGRFTISRDDSKSSVYLQMTSLRPEDTGIYYCTHFDYWGQGTTLTVSSAKTTGPSVFPLAPSSKSTSGGTAALGCLVKDYFPEPVTVSWNSGALTSGVHTFPAVLQSSGLYSLSSVVTVPSSSLGTQTYICNVNHKPSNTKVDKKVEPKSCDKTHT
VL: DIQMTQSPSSLSASLGERVSLTCRASQEISGYLSWFQQKPDGTIKRLIYAASALDSGVPKRFSGSWSGSDYSLTISSLESEDFADYYCLQYVSYPLTFGAGTKLELKRTVAAPSVFIFPPSDEQLKSGTASVVCLLNNFYPREAKVQWKVDNALQSGNSQESVTEQDSKDSTYSLSSTLTLSKADYEKHKVYACEVTHQGLSSPVTKSFNRGEC
Consider B1, for which the EC50 was 2.5 µg/mL.

(Values after patent US20090087428A1.)
